Here are results for 2 molecules from US20080267967A1 (TRILLIUM THERAPEUTICS, published 2008).

One test deals with T1, murine CD200R2a (murine, UniProt Q6XJV6 25-249).
T1 sequence: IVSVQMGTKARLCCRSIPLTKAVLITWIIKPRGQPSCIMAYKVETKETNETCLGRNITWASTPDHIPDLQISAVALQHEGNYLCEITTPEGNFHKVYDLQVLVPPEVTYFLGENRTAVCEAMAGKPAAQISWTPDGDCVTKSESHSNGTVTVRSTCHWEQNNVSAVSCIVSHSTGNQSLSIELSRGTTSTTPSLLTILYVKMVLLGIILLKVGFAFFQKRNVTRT
Nature of the test: FACS, FITC-CD200Fc on COS cells transiently transfected with CD200R isoform cDNA. An excerpt:
(§1) In order to assess whether the various CD200R isoforms described could all serve as counter-igands for CD200, an immunoadhesin (CD200Fc) incorporating the extracellular domain of CD200 linked to a murine IgG2a Fc region as described (51) was used. CD200Fc was coupled to FITC and the inventors then examined by FACS analysis binding of FITC-labeled CD200Fc to COS cells transiently transfected with pBK vectors encoding cDNAs for the various CD200R isoforms. As control the inventors examined binding to COS cells transduced with empty pBK vectors. COS cells expressing the different CD200R isoforms all bound FITC-CD200Fc.
(In general: Flow cytometry measures light scatter and fluorescence of single cells or particles in a stream.)

In the next test the target is T2, murine CD200R3a (murine, UniProt Q5UKY4 26-272).
T2 sequence: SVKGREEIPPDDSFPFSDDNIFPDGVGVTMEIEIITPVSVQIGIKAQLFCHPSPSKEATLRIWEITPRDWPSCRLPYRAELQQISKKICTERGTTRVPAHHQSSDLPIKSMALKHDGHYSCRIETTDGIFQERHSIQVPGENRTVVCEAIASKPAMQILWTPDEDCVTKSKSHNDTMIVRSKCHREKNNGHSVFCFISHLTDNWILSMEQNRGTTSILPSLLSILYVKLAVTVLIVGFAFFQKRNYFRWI
The description is as above.
Excerpt: as §1

For test [1], the target named is T3, CD200 receptor (CD200R) on primary mouse cells, isoform not stated (mouse) (UniProt Q9ES57).
T3 sequence: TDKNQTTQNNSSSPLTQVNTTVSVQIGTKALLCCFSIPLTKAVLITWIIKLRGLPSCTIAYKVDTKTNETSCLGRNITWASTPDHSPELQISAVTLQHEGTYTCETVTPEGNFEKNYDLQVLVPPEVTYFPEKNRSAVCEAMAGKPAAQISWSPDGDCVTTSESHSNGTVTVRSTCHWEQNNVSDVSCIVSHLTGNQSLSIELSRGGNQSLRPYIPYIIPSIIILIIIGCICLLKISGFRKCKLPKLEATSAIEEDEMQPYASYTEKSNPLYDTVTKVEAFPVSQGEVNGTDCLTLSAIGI
Nature of the test: cell-based or functional assay.

B1: CD200Fc immunoadhesin (extracellular domain of CD200 linked to a murine IgG2a Fc region) (Fc fusion, mouse, UniProt O54901 31-232, looked up)
chain: QVEVVTQDERKALHTTASLRCSLKTSQEPLIVTWQKKKAVSPENMVTYSKTHGVVIQPAYKDRINVTELGLWNSSITFWNTTLEDEGCYMCLFNTFGSQKVSGTACLTLYVQPIVHLHYNYFEDHLNITCSATARPAPAISWKGTGTGIENSTESHFHSNGTTSVTSILRVKDPKTQVGKEVICQVLYLGNVIDYKQSLDKG
modifications: FITC-labelled in the binding assays
notes: extracellular domain; Made in a baculovirus system in Sf insect cells; also called FITC-CD200Fc; FITC-CD200:Fc; not shown: murine IgG2a Fc region; the ch
Turning to B1, the binding result in the test with murine CD200R2a and with murine CD200R3a was “binds” throughout.

B2: mouse CD200 on dendritic cells (ligand, UniProt O54901 31-278, looked up)
chain: QVEVVTQDERKALHTTASLRCSLKTSQEPLIVTWQKKKAVSPENMVTYSKTHGVVIQPAYKDRINVTELGLWNSSITFWNTTLEDEGCYMCLFNTFGSQKVSGTACLTLYVQPIVHLHYNYFEDHLNITCSATARPAPAISWKGTGTGIENSTESHFHSNGTTSVTSILRVKDPKTQVGKEVICQVLYLGNVIDYKQSLDKGFWFSVPLLLSIVSLVILLVLISILLYWKRHRNQERGESSQGMQRMK
In the case of B2, in test [1], the IFNγ in MLC at 40 hrs; CD200R+ cells + CD200+ DC was found to be 0.145 ng/mL; the IFNγ in MLC; CD200R+ cells + CD200+ DC, no mAb worked out at 0.17 ng/mL; the IL-2 in MLC at 40 hrs; CD200R+ cells + CD200+ DC was 0.16 ng/mL; the IL-2 in MLC; CD200R+ cells + CD200+ DC, no mAb amounted to 0.165 ng/mL. In test [1], the IL-4 in MLC at 40 hrs; CD200R+ cells + CD200+ DC is 0.255 ng/mL and the IL-10 in MLC at 40 hrs; CD200R+ cells + CD200+ DC is 0.225 ng/mL.
